The assay has as its target GST-BpfD-In (BpfD intracellular domains) (Shewanella putrefaciens CN32). The assay is described as follows: MST.

B1: His6-CRP (natural protein)
chain: MALIGKPKPDPTLEWFLSHCHIHKYPAKSTLIHAGEDSDTLYYIVKGSVAVLIKDEEGKEMILSYLNQGDFIGELGLFEEQAERTAWVRAKQACEIAEISYKKFKQLIQVNPEILMKLSAQMAYRLQSTSQKVGNLAFLDVAGRIAQTLLHLAKQPDAMTHPDGMQIKITRQEIGQIVGCSRETVGRILKMLEEQNLIQAHGKTIVVYGTR
modifications: labeled with NHS NT-647 dye (in the MST assay only)
For the molecule B1, binding was put at a Kd of 4.9 µM.

Broadly, the Kd is the concentration at which binding is half-saturated. A higher Kd goes with a looser complex.

The record behind these values is paper PMC8938473 (2022).
